In assay [1] the target is misfolded TTR in plasma of ATTR patients (human, UniProt P02766 21-147). The experiment in a line: MSD ECL competition: m14G8 spiked into plasma of 12 h-ATTR patients, free mis-TTR captured by biotinylated 9D5 (competitor), Dako polyclonal reporter.
Assay [2] deals with native tetrameric human TTR (human, UniProt P02766 21-147). The experiment in a line: SPR Biacore T200, antibody captured by anti-mouse antibody, human TTR tetramer 10-10,000 nM as analyte, 1:1 fit. The procedure:
(§1) Anti-Mouse antibody was immobilized on sensor chip CM3 (GE Healthcare Life Sciences) via amine coupling, and murine antibodies (ligand) were captured to a level to ensure a maximum binding of analyte of 50 RU (approximately 250RU of ligand binding). Various concentrations of Gu-TTR (ranging from 0.4 nM to 100 nM) were passed over the captured ligand at 50 μL/min in running buffer (HBS+0.05% P-20, 1 mg/mL BSA, 50 mM Gu-HCl) for 300 s association time and 900 s dissociation time. Regeneration of the chip surface was accomplished by 2 short injections of 10 mM Glycine-HCl at pH 1.7. Concentrations of Gu-cTTR used ranged from 1-1000 nM, while concentrations of Human TTR tetramer ranged from 10 nM to 10,000 nM. Data was blank subtracted to both a sensor not containing ligand and 0 nM analyte concentration. Analysis was performed using a global 1:1 fit with Biacore Evaluation software (v3.0) with bulk refractive index set to zero RU.
Background: In SPR one partner is held on a chip, and binding of the other changes the refractive index at the surface.

For assay [3], the target named is T1, recombinant human TTR, denatured (misfolded) (human, UniProt P02766 21-147). In words: SPR Biacore T200, antibody captured by anti-mouse antibody, Gu-hTTR as analyte, 1:1 fit. How it is done:
as §1

In assay [4] the target is Cynomolgus TTR denatured in 6 M Guanidine Hydrochloride (Cynomolgus, UniProt Q8HXW1 21-147). In words: SPR Biacore T200, antibody captured by anti-mouse antibody, Gu-cTTR 1-1000 nM as analyte, 1:1 fit. How it is done: as §1
Assay [5] concerns the target T1, recombinant human TTR, denatured …. The experiment in a line: SPR Biacore T200, antibody captured by anti-mouse antibody, Gu-hTTR 0.4-100 nM as analyte, 1:1 fit. How it is done:
(§2) Anti-Human antibody was immobilized on flow cells 1 and 2, Anti-Mouse antibody was immobilized on flow cells 3 and 4 on sensor chip CM3 (GE Healthcare Life Sciences) via amine coupling, chimeric and murine 18C5 antibodies (ligand) were captured to a level to ensure a maximum binding of analyte of 50 RU (approximately 250RU of ligand binding). Various concentrations of Gu-TTR (ranging from 0.4 nM to 100 nM) were passed over the captured ligand at 50 μL/min in running buffer (HBS+0.05% P-20, 1 mg/mL BSA, 50 mM Gu-HCl) for 300s association time and 900s dissociation time. Regeneration of the chip surface was accomplished by 2 short injections of 3M Magnesium Chloride or 2 short injections of 10 mM Glycine-HCl at pH 1.7. Data was blank subtracted to both a sensor not containing ligand and 0 nM analyte concentration. Analysis was performed using a global 1:1 fit with Biacore Evaluation software (v3.0) with bulk refractive index set to zero RU.

Assay [6] has the same target. The experiment in a line: SPR Biacore T200, antibody captured by anti-human antibody, Gu-hTTR 0.4-100 nM as analyte, 1:1 fit. The procedure:
as §2

The source of these data is patent US20200249244A1 (PROTHENA BIOSCIENCES, published 2020).

Values joined by “and” are separate entries in the source; they are usually repeats but may differ in a detail not shown here. Identical values can stand only once.

B1: Mouse 14G8 (antibody, V domains shown)
VH: EVKLVESGGGLVQPGGSLKLSCAASGFTFSSYTMSWVRQTPEKRLELVAEINNSGDTTYYPDTVKGRFTISRDNAKNTLYLQMSSLKSEDTAMYYCARHYYYGGGYGGWFFDVWGTGTTVTVSS
VL: DIVMTQAAPSVPVTPGESVSISCRSNKSLLHSNGNTYLYWFLQRPGQSPQLLIYRVSNLASGVPDRFSGSGSGTAFTLRISRVEAEDVGVYYCMQHLEYPLTFGAGTKLELKR
The EC50 is the concentration at which the effect is half-maximal. Low values mean a more potent agent, high ones a less potent agent. As for B1, the EC50 in assay [1] was 343 nM and ~50 µg/mL.

B2: mouse 18C5 antibody (antibody, V domains shown)
VH: EVKLLESGGGLVQPGGSLNLSCVASGFDFSRFWMSWARQAPGRGQEWIGEINPGSSTINYTPSLKDKFIISRDNAKNTLFLQMSKVRSEDSALYYCARLGYGNYGWALDYWGQGTSVTVSS
VL: DVLMTQTPLSLPVSLGDQASISCRSSQSIVDSNGNTYLEWYLQKPGQSPKLLIYKVSNRFSGVPDRFSGSGSGTDFTLKISRVEAEDLGIYYCFQGSHVPLTFGAGTKLELK
notes: Used unlabelled (Biacore, Western blot), biotinylated (capture) or SULFO-TAG labelled (reporter) in the MSD assays; also called murine 18C5; m18C5
In general, koff refers to the rate constant with which the complex falls apart. The kon is a measure of how fast the partners come together. Broadly, the Kd is the free concentration of one partner at which half of the binding sites on the other are occupied at equilibrium, for simple one-to-one binding. As to B2, the koff in assay [2] is 0.00022 s⁻¹; in assay [3] it was 0.00062 s⁻¹; in assay [4], 0.00092 s⁻¹; in assay [5], 0.00021 s⁻¹. In addition, the kon amounted to 2200 M⁻¹ s⁻¹ in assay [2], 110000 M⁻¹ s⁻¹ in assay [3], 100000 M⁻¹ s⁻¹ in assay [4] and 99000 M⁻¹ s⁻¹ in assay [5]. For the same molecule, the dissociation constant (Kd) in assay [3] is 5.9 nM; in assay [5], 2.2 nM.

B3: chimeric 18C5 antibody (antibody, human IgG1, kappa, V domains shown)
VH: B2 VH
VL: DVLMTQTPLSLPVSLGDQASISCRSSQSIVDSNGNTYLEWYLQKPGQSPKLLIYKVSNRFSGVPDRFSGSGSGTDFTLKISRVEAEDLGIYYCFQGSHVPLTFGAGTKLELKR
notes: Mouse 18C5 variable regions on human IgG1/kappa constant regions, expressed in CHO cells
Turning to B3, in assay [6], the equilibrium dissociation constant (Kd) worked out at 1.8 nM, the koff worked out at 0.00016 s⁻¹ and the on-rate constant (kon) was 130000 M⁻¹ s⁻¹.
